According to paper PMC4711005, “LRRK2 phosphorylates pre-synaptic N-ethylmaleimide sensitive fusion (NSF) protein enhancing its ATPase activity and SNARE complex disassembling rate” (Molecular Neurodegeneration, 2016):
Changes are numbered by the printed parent chain. Names and notes keep the numbering of the source.

B1: Flag-NSF full-length (human, aa 1-744) (enzyme, UniProt P46459 1-744, looked up)
chain: MAGRSMQAARCPTDELSLTNCAVVNEKDFQSGQHVIVRTSPNHRYTFTLKTHPSVVPGSIAFSLPQRKWAGLSIGQEIEVSLYTFDKAKQCIGTMTIEIDFLQKKSIDSNPYDTDKMAAEFIQQFNNQAFSVGQQLVFSFNEKLFGLLVKDIEAMDPSILKGEPATGKRQKIEVGLVVGNSQVAFEKAENSSLNLIGKAKTKENRQSIINPDWNFEKMGIGGLDKEFSDIFRRAFASRVFPPEIVEQMGCKHVKGILLYGPPGCGKTLLARQIGKMLNAREPKVVNGPEILNKYVGESEANIRKLFADAEEEQRRLGANSGLHIIIFDEIDAICKQRGSMAGSTGVHDTVVNQLLSKIDGVEQLNNILVIGMTNRPDLIDEALLRPGRLEVKMEIGLPDEKGRLQILHIHTARMRGHQLLSADVDIKELAVETKNFSGAELEGLVRAAQSTAMNRHIKASTKVEVDMEKAESLQVTRGDFLASLENDIKPAFGTNQEDYASYIMNGIIKWGDPVTRVLDDGELLVQQTKNSDRTPLVSVLLEGPPHSGKTALAAKIAEESNFPFIKICSPDKMIGFSETAKCQAMKKIFDDAYKSQLSCVVVDDIERLLDYVPIGPRFSNLVLQALLVLLKKAPPQGRKLLIIGTTSRKDVLQEMEMLNAFSTTIHVPNIATGEQLLEALELLGNFKDKERTTIAQQVKGKKVWIGIKKLLMLIEMSLQMDPEYRVRKFLALLREEGASPLDFD
notes: N-ethylmaleimide sensitive fusion protein (NSF), human, full-length, aa 1-744; Cloned into the p3XFLAG-CMV-7.1 vector; also called 3xFlag-NSF wt; NSF wild-type; source: kept on the resin or eluted with 3xFlag peptide; also in HEK293T lysate; not shown: Flag, N-terminal, kept
B2: NSF T645A (enzyme, human, UniProt P46459 1-744, looked up)
chain: B1 chain with T645A
notes: NSF, human, phospho-deficient mutant T645A of the NSF wild-type construct (full-length aa 1-744), made by QuickChange mutagenesis; source: HEK293T, expressed and purified

Molecular target: the molecule itself
Test: negative-stain transmission electron microscopy; purified NSF incubated with 1 mM ATP and 2 mM MgCl2, adsorbed to carbon-coated grids, stained with 1 % uranyl acetate

Protein	stoichiometry N
B1	6
B2	6
